# Results as given in patent US20150037348A1 (AbbVie / Abbott, published 2015).
# Numbering of substitutions follows the chain as printed. Names may count otherwise. “And” between values parts separate entries of the source, which are not always exact repeats. Equal values may be shown once. Read-outs that look alike come from different tables or passages of the source.
# B1: Y61 IgG (antibody, V domains shown)
# VH: QVQLVQSGGGVVQPGRSLRLSCAASGFTFSSYGMHWVRQAPGKGLEWVAFIRYDGSNKYYADSVKGRFTISRDNSKNTLYLQMKSLRAEDTAVYYCKTHGSHDNWGQGTMVTVSS
# VL: SYVLTQPPSVSGTPGQRVTISCSGGRSWIGSNTVKWYQQLPGTAPKLLIYGNDQRPSGVPDRFSGSKSGTSASLAITGVQAEDEADYYCQSYDRGTHPALLFGTGTKVTVLG
# notes: whole IgG1; also called Y61-IgG1
# B2: AO3 IgG1 (antibody, V domains shown)
# VH: B1 VH
# VL: B1 VL with W28N, A99L, L100T, L101M
# notes: IgG1
# B3: AO3 IgG germline (antibody, V domains shown)
# VH: B1 VH with Q6E, K84N
# VL: QSVLTQPPSVSGAPGQRVTISCSGSRSNIGSNTVKWYQQLPGTAPKLLIYGNDQRPSGVPDRFSGSKSGTSASLAITGLQAEDEADYYCQSYDRGTHPLTMFGTGTKVTVL
# notes: IgG with germline frameworks as named; only the CDR3s are tied to it
# B4: Y61 IgG germline (antibody, V domains shown)
# VH: B1 VH with Q6E, K84N
# VL: B3 VL with L99A, T100L, M101L
# B5: Y61-L94Y (scFv, V domains shown)
# VH: B1 VH
# VL: B3 VL with G95Y, L99A, T100L, M101L
# B6: Y61-L94F (scFv, V domains shown)
# VH: B1 VH
# VL: B3 VL with Q1S, S2Y, A13T, S25G, L79V, G95F, L99A, T100L, M101L
# B7: Y61-L94N (scFv, V domains shown)
# VH: B1 VH
# VL: B3 VL with Q1S, S2Y, A13T, S25G, L79V, G95N, L99A, T100L, M101L
# B8: 149-5 (scFv)
# chain: QVQLVQSGGGVVQPGRSLRLSCAASGFTFSSYGMHWVRQAPGKGLEWVAFIRYDGSNKYYADSVKGRFTISRDNSKNTLYLQMKSLRAEDTAVYYCTTHGSHDTWGQGTMVTVSSSYVLTQPPSVSGTPGQRVTISCSGGRSNIGSNTVKWYQQLPGTAPKLLIYGNDQRPSGVPDRFSGSKSGTSASLAITGVQAEDEADYYCQSYDSSLWGTRVFGTGTKVTVLG
# B9: 149-6 (scFv)
# chain: B8 chain with T104N, G145V, S209R, S210G, L211F, W212T, T214S
# B10: Y61 scFv (scFv, V domains shown)
# VH: B1 VH
# VL: B1 VL
# notes: Single chain Fv; also called clone Y61
# B11: Y61-L30D (scFv, V domains shown)
# VH: B1 VH
# VL: B3 VL with Q1S, S2Y, A13T, S25G, S31D, L79V, L99A, T100L, M101L
# notes: copies: 1 + 1
# B12: Y61-L30C (scFv, V domains shown)
# VH: B1 VH
# VL: B3 VL with Q1S, S2Y, A13T, S25G, S31C, L79V, L99A, T100L, M101L
# notes: copies: 1 + 1
# B13: Y61-L30Y (scFv, V domains shown)
# VH: B1 VH
# VL: B3 VL with Q1S, S2Y, A13T, S25G, S31Y, L79V, L99A, T100L, M101L
# notes: copies: 1 + 1
# B14: Y61-L30K (scFv, V domains shown)
# VH: B1 VH
# VL: B3 VL with Q1S, S2Y, A13T, S25G, S31K, L79V, L99A, T100L, M101L
# notes: copies: 1 + 1
# B15: Y61-L30R (scFv, V domains shown)
# VH: B1 VH
# VL: B3 VL with Q1S, S2Y, A13T, S25G, S31R, L79V, L99A, T100L, M101L
# notes: copies: 1 + 1
# B16: Y61-L30N (scFv, V domains shown)
# VH: B1 VH
# VL: B3 VL with Q1S, S2Y, A13T, S25G, S31N, L79V, L99A, T100L, M101L
# notes: copies: 1 + 1
# How the values were obtained:
# [1] = molecular target: T1, recombinant human IL-12 (rhIL-12) (human, UniProt P29459 23-219; P29460 23-328); experiment: BIAcore SPR
# T1 construct: disulfide-linked p35/p40 heterodimer (p70); also called IL-12 p70; rec. human IL12
# T1 sequence (looked up) 1: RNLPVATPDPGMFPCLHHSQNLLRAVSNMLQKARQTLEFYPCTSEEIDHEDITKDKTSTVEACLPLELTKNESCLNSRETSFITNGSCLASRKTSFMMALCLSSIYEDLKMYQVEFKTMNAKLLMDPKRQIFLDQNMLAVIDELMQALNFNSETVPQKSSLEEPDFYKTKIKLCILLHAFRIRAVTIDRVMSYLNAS
# T1 sequence (looked up) 2: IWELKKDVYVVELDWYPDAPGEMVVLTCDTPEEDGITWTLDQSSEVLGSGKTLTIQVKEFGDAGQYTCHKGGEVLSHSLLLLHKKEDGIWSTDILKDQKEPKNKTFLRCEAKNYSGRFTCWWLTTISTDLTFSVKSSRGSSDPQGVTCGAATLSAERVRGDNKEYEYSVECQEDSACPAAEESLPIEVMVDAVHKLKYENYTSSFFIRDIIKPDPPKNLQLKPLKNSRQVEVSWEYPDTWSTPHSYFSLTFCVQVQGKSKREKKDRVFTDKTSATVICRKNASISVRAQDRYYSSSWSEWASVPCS
# [2] = molecular target: T1, recombinant human IL-12 (rhIL-12); experiment: cell-based or functional assay
# [3] = molecular target: T1, recombinant human IL-12 (rhIL-12); experiment: cell-based or functional assay; remark: listed apart in the source
# [4] = molecular target: T1, recombinant human IL-12 (rhIL-12); experiment: cell-based or functional assay; remark: listed apart in the source
# [5] = molecular target: T1, recombinant human IL-12 (rhIL-12); experiment: receptor binding assay, 125I-hIL-12 on PHA blasts
# Method: PHA blast cells isolated as described above, were washed once and resuspended in binding buffer to a cell density of 2×10⁷ cells/ml. […] The cell pellet was examined for cell bound radioactivity using a gamma counter. […] Incubations were carried out in duplicate.
# [6] = molecular target: T2, human interleukin 12 (p70 heterodimer of p35 and p40) (human, UniProt P29459 23-219; P29460 23-328); experiment: BIAcore
# T2 construct: Recombinant human IL-12; p35 and p40 linked by a disulfide bridge; also called hIL-12; IL-12
# T2 sequence (looked up) 1: T1 sequence (looked up) 1
# T2 sequence (looked up) 2: T1 sequence (looked up) 2
# [7] = molecular target: T2, human interleukin 12 (p70 heterodimer …); experiment: BIAcore; remark: listed apart in the source
# [8] = molecular target: T2, human interleukin 12 (p70 heterodimer …); experiment: BIAcore; remark: listed apart in the source
# [9] = molecular target: T2, human interleukin 12 (p70 heterodimer …); experiment: BIAcore; remark: listed apart in the source
# [10] = molecular target: T2, human interleukin 12 (p70 heterodimer …); experiment: BIAcore; remark: listed apart in the source
# [11] = molecular target: T2, human interleukin 12 (p70 heterodimer …); experiment: BIAcore; remark: listed apart in the source
# [12] = molecular target: T2, human interleukin 12 (p70 heterodimer …); experiment: BIAcore; remark: listed apart in the source
binder,measurement,setting,value
B1,koff,[1],0.00015 s⁻¹
same,PHA assay IC50,[2],0.13 nM
same,PHA assay IC50 (M) p70:p40 1:0,[3],1.8e-10 M
same,PHA assay IC50 (M) p70:p40 1:50,[3],1.8e-10 M
same,"IC50 (M), bioassay, Human IL-12 Purified",[4],1.7e-10 M
same,IC50,[5],0.016 nM
B2,koff,[1],0.000304 s⁻¹
same,PHA assay IC50,[2],0.38 nM
same,PHA assay IC50 (M) p70:p40 1:0,[3],2.5e-10 M
same,PHA assay IC50 (M) p70:p40 1:50,[3],2.2e-10 M
same,IC50,[5],0.029 nM
B3,koff,[1],0.00025 s⁻¹
same,PHA assay IC50,[2],0.175 nM
same,IC50,[5],0.035 nM
B4,koff,[1],0.00015 s⁻¹
same,IFN gamma IC50,[2],0.16 nM
same,PHA assay IC50,[2],0.13 nM
same,IC50,[5],0.016 nM
B5,koff,[6],0.000131 s⁻¹
same,PHA assay IC50,[2],0.02 nM
same,IC50,[5],0.02 nM
B6,koff,[6],0.000236 s⁻¹
same,PHA assay IC50,[2],0.06 nM
B7,koff,[6],0.000137 s⁻¹
same,PHA assay IC50,[2],0.08 nM
B8,PHA assay IC50 (M) p70:p40 1:0,[3],6.5e-09 M
same,PHA assay IC50 (M) p70:p40 1:20,[3],7e-09 M
same,PHA assay IC50 (M) p70:p40 1:50,[3],4e-09 M
B9,PHA assay IC50 (M) p70:p40 1:0,[3],9e-10 M
same,PHA assay IC50 (M) p70:p40 1:20,[3],1e-09 M
same,PHA assay IC50 (M) p70:p40 1:50,[3],1e-09 M
B10,koff,[7],0.000249 s⁻¹ and 0.000168 s⁻¹ and 0.000337 s⁻¹ and 0.000178 s⁻¹
same,koff,[8],0.000204 s⁻¹ and 0.000206 s⁻¹ and 0.000151 s⁻¹ and 0.000178 s⁻¹
same,koff,[9],0.000385 s⁻¹ and 0.00031 s⁻¹
same,koff,[10],0.000403 s⁻¹
same,koff,[11],0.000211 s⁻¹ and 0.000229 s⁻¹ and 0.000241 s⁻¹
same,koff,[12],0.000215 s⁻¹ and 0.000297 s⁻¹
same,koff,[6],0.000259 s⁻¹ and 0.000199 s⁻¹ and 0.000256 s⁻¹
B11,koff,[11],0.00022 s⁻¹
B12,koff,[11],0.000186 s⁻¹
B13,koff,[11],0.000483 s⁻¹
B14,koff,[11],0.000346 s⁻¹
B15,koff,[11],0.000182 s⁻¹
B16,koff,[11],0.000166 s⁻¹
